Results published in paper PMC5643538, “Direct visualization of critical hydrogen atoms in a pyridoxal 5′-phosphate enzyme” (Nature Communications, 2017).

Molecular target: the molecule itself
Experiment: crystal structure; joint neutron (2.2 Å) and X-ray (2.0 Å) structure at room temperature, pH 7.5, crystal soaked with 300 mM alpha-methyl-DL-aspartate; homodimer in one asymmetric unit

B1: recombinant porcine cytosolic aspartate aminotransferase (enzyme)
chain: MAPPSVFAEVPQAQPVLVFKLIADFREDPDPRKVNLGVGAYRTDDCQPWVLPVVRKVEQRIANDSSLNHEYLPILGLAEFRTCASRLALGDDSPALQEKRVGGVQSLGGTGALRIGAEFLARWYNGTNNKDTPVYVSSPTWENHNGVFTTAGFKDIRSYRYWDTEKRGLDLQGFLSDLENAPEFSIFVLHACAHNPTGTDPTPEQWKQIASVMKRRFLFPFFDSAYQGFASGNLEKDAWAIRYFVSEGFELFCAQSFSKNFGLYNERVGNLTVVAKEPDSILRVLSQMEKIVRVTWSNPPAQGARIVARTLSDPELFHEWTGNVKTMADRILSMRSELRARLEALKTPGTWNHITDQIGMFSFTGLNPKQVEYLINEKHIYLLPSGRINMCGLTTKNLDYVATSIHEAVTKIQ
modifications: pyridoxal 5'-phosphate covalently linked to K258 (internal aldimine; chain B at pH 7.5, both chains at pH 4.0); in chain A at pH 7.5 PLP is linked to alpha-methylaspartate (external aldimine) and K258 is free; protein deuterated
notes: aspartate aminotransferase, cytosolic, pig; the construct and its tag are not described here; also called AAT; source: E. coli T7 Express LacIQ, deuterated (minimal medium with 100% D2O), purified (Ni-NTA)
With B1 the “stoichiometry N” value was 2.
